The values below come from patent US20210198657A1 (TRUSTEES OF BOSTON COLLEGE, published 2021).

The target of this assay is T1, human serum albumin (human, UniProt P02768 25-609).
T1 construct: Reagent protein; also called HSA
Briefly: fluorescence anisotropy, 500 nM peptide with varied protein concentrations in PBS pH 7.4. On the procedure:
FIGS. 16A-16B show further evaluation of the protein-enhanced bacterial staining by KAM5. (A) Flow cytometry comparison of HSA and BSA in enhancing KAM5 binding to S. aureus. (B) Assessing protein binding of KAM5 using fluorescence anisotropy, for which various concentrations of BSA or HSA were delivered to a 96-well plate (Corning 3603) in PBS (pH 7.4). Peptide was added at a final concentration of 500 nM and incubated for 1 hour. Anisotropy values were measured (Ex: 495 nm, Em: 532 nm) and plotted as an average of three trials with standard deviations. Fluorescein was used as a negative control. The results clearly show binding of KAM5 to these serum proteins.
The cell staining ability of KAM5 was also evaluated via fluorescence microscopy with a TAMRA labeled peptide. […] On the contrary, the BSA addition elicited stronger fluorescence staining of the bacteria, consistent with the flow cytometry results (FIG. 2D). […] To better understand this phenomenon, KAM5 was measured binding to these serum proteins via a fluorescence anisotropy experiment (FIGS. 16A-16B). KAM5 did show binding to both BSA and HAS at high protein concentrations, which is perhaps not surprising given these proteins display a large number of surface lysine residues.

Non-standard residues stand in square brackets, D forms with d. No end group written: not given here. *: point of attachment. APBA‑IA = cysteine S-alkylated with APBA-IA: S-[2-oxo-2-({3-[4-acetyl-3-boronophenoxy]propyl}amino)ethyl]-L-cysteine (Cm), CC(=O)c1ccc(OCCCNC(=O)C*)cc1B(O)O; FAM = 5(6)-carboxyfluorescein, amide on Dap side-chain amine; Dap = NC[C@H](N)C(=O)O

T1 sequence (P02768 25-609 limits assumed): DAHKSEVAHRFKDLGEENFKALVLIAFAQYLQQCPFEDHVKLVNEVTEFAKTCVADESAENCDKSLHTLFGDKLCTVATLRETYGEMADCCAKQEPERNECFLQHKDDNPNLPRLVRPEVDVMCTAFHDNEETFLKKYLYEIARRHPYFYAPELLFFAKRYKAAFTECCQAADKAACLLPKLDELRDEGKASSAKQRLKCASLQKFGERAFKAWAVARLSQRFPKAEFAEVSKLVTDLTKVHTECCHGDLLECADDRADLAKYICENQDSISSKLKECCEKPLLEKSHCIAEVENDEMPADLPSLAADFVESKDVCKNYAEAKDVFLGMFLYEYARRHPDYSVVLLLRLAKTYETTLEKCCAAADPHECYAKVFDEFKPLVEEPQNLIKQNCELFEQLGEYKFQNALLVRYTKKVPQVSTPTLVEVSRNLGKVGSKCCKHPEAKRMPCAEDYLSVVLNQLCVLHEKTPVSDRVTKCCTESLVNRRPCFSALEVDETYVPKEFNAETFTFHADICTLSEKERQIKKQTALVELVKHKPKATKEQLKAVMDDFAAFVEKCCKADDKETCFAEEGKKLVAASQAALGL

Regarding AC(APBA‑IA)VSPRSHEC(APBA‑IA)GGG[Dap](FAM)-NH2 [KAM5 (fluorescein/FAM labeled, APBA-IA modified): ACmVSPRSHECmGGGDap*], the binding result is “binds”.
